Test results as given in the nanobody polyreactivity screen of Harvey et al. (2022).

Test: yeast display, Sf9 membrane polyspecificity reagent, FACS + sequencing; frameworks hold sequencing errors
In short: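 Polyreactivity labels are assigned by the sorting gate from which each nanobody was recovered. The gates were low and high (top ~1%), set on anti-HA fluorescence for expression and streptavidin fluorescence for reagent binding. Before sorting, galactose-induced (36–48 hours) yeast display cells were stained for 1 hour at 4 °C with 10% biotinylated, detergent-solubilized Sf9 membrane reagent.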

Row | Sequence | polyreactivity (PSR sort gate)
1 | QVQLVESGGGLVQAGGSLRLSCAASGSIFGYYTMGWYRQAPGKERELVAGIDFITTSTYYADSVKGRFTISRDNAKNTVYLQMNSLKPEDTAVYYCNADPFTGYDYWGQGTQVTVSS | low polyreactivity
2 | QVQLVESGGGLVQAGGSLRLSCAASGFTFVINDMGWYRQAPVKERELVADITSGGDTYYADSVKGRFTISRVNAKNTVYLQMYRLKPEDTAVYYCAADIYPDWIYLLYGYWGQGTQVNVSS | low polyreactivity
3 | QVQLVESGGGLVQAGGSLRLSCAASRSIFVPYAMGWYRQAPGKERELVAVITSGGSTYYADSVKGRFTISRDNAKNTVYLQMNSLKPEDTAVYYCNADLYYVWSTLSQFDYWGQGTQVTVSS | low polyreactivity
4 | QVQLVESRGGLVQAGGSLRLSCAASGITFTIYAMGWYRQAPGKERELVAAITWTSDITHYADSVKGRFTISRDNAKNTVYLQMISLKPEDTAVYYCAATTWDEYDYWGQGTQVTVSS | high polyreactivity
5 | QVQLVESGGGLVQAGGSLRLSCAASGSTFKRNAMGWYRQAPGKERELVAAISFRGGSTYYADSVKGRFTISRDNAKNTVYLQMNSLKPEDTAVYYCAAGIYRIRGGGISFDYWGQGTQVTVSS | high polyreactivity
6 | QVQLVESGGGLVQAGGSLRLTSAASGSIFPYNAMGWYRPAPGKDSELLARISWSGGSTYYADSVKGRFTISRDNAKNTVYLQMKSLKPEDTALYYGAATIIFDAQYRFYYWGQGTQVTVSS | low polyreactivity
7 | QVQLVESGGGLVQAGGSLRLSCAASGRTFYYAMGWYRQAPGKERELVAAISKNGGRTYYADSVKGRFTISRDNAKNTVYLQMNSLKPEDTAVYYCAAAFQRPHSYLYYYWGQGTQVTVSS | high polyreactivity
8 | QVQLVESGGGLVQAGGSLRLSCAASGLIFYQYAMGWYRQAPGKESELVAAISRSGGRTNYADSVKGRFTISRDNAKNTVYLQMNSLKPEDTAVYYCNAVHYFLYGYYSWGQGTQVSVSS | high polyreactivity
9 | QFQLVESGGGLVQAGGSLRLSCAASGCTLQRNNRGWYRQAPGKDSEFVARISRRACSTYYADSVKGRITISRDNAKNTVYLQMNSLKPEDTAVYYCSTEDRGLTTRYPYDYWGQGTQVTVSS | high polyreactivity
10 | QVQLVESGGGLVQAGGSLRLSCAASGSTFRYYTMGWYRQAPGKERELVAAISWSGGITYYADSVKGRFTISRDNAKNTVYLQMNSLKPEDTAVYYCAADWWAWRAYYYWGQGTQVTVSS | high polyreactivity
11 | QVQLGESGGGLVQAGGSLRLSCAASGRIFSKNAMGWYRQAPGKERELVASIRQSGSNTYADSVKGRFTISRVNAKNTVYVQMNSLKPEDTAVYNCAASYFPLNSGRKVGYWGQGTQVTVSS | low polyreactivity
12 | QVQLVESGGGLVQAGGSLRLSCAASGFIFWYYAMGWYRQAPGKERELVATITTGGGTNYADSVKGRFTISRDNAKNTVYLQMNSLKPEDTAVYYCNADFRWYAEDDYWGQGTQVTVSS | low polyreactivity
13 | QVQLVESGGGLVQAGGSLRLSCAASGIIFGTNAMGWYRQAPGKERELVAAIRVTGGSTYYADSVKGRFTISRDNAKNTVYLQMNSLKPEDTAVYYCARDSWFVVDMDYWGQGTQVTVSS | low polyreactivity
14 | QVQLVESGGGLVQAGGSLRLSCAASGFTFTDNAMGWSRQAPGKERELVAAISRGVGTNYADSVKGRFTISRDNAKNTVYLQMNSLKPEDTAVYYCAAGGRSVRYNYWGQGTQVTVSS | high polyreactivity
15 | QVQLVESGGGLVQAGGSLRLSCAASGRTFGHYAMGWYRQAPGKERELVAAITWTGGRTYYADSVKGRFTISRDNAKNTVYLQMNSLNPEVTAVYYCNTDRSFYYPAEYDYDYWGQGTQVTVSS | low polyreactivity
16 | QVQLVESGGGLVQAGGSLRLSCAASGRTFNFNTMGWYRQAPGKEREFVAAITFRGVRTYYADSVKGRFTISRDNAKNTVYLQMNSLKPEDTAVYYCAADAPRSYRFGYWGQGTQVTVSS | high polyreactivity
17 | QVQLVDSGGGLVQAGGSLRLSCAASGRIFIVNPMGRYRQAPGKEREFVAAITSRGGITYYADSVKGRFTISRDNAKNTVYLQMNTLKPEDTAVYYFAAGYISWGSGNWGVTPYDYWGQGTQVTVSS | high polyreactivity
18 | QVQLVESGGGLVQAGGSLRLSCVASGSIFKQYAMGWYRQAPGKERELVAGISKTGGRTYYADSVKGRFTISRDNAKNTVYLQMNSLKPEDTAVYYCAAYFRSDYGYWGQGTQVTVSS | high polyreactivity
19 | QVQLVESGGGLVQAGGSLRLSCAASGRIFGDYAMGWYRQAPGKERELVADITWSGGSTYYADSVKGRFTISRDNAKNTVYLQMNSLKPEDTAVYYCNADYDGGYYGDLSLYDYWGQGSQVTVSS | low polyreactivity
20 | QVQLQESGGGLVQAGGSLRLSCEASCYISDVNDMGWYRQAPGKEREFVAGFGYGGITNYADSVKGRFTISRDNAKNTVYLQMNSLKPKDSAVYNCAVHWGPDRGLYYWGQGTQVTVSS | high polyreactivity
21 | QVHLVESGGGLVQAGGSLRISCAASGRIFRRYAMGWYRQAPGKERELVAAITRSGGSTYYADSVKGRFTISRDNAKNTVYLQMNSLKPEDTAVYYCNAPSSLGTDYDYWGQGTQVTVSS | high polyreactivity
22 | QVQLVESGGGLVQAGGSLRLSCAASGITFRYYAMGWYRQAPGKERELVARITTDGSTHYADSVKGRFTISRDNAKNTVYLQMNSLKPEDTAVYYCNARHRNLAEYDYWGQGTQVTVSS | low polyreactivity

Row | Sequence | polyreactivity (PSR sort gate)
23 | QVQLVESGGGLVQAGGSLRLSCAASGNIFYYNAMGWYRQAPGKVRELVAAITRSAGSTYYADSVKGRFPISRDNAKNTVYLQMNSLKPEDTAVYYCAATYSDLGYRYYSLGQGTQVTVSS | high polyreactivity
24 | QVQLVESGGGLVQAGGSLRLSCAASGSIFNRYAMGWSRQAPGKARELVPAISRRGAGTYYADSVKGRFTISRDNAKHTVYLQMNSLKPDDTAVYYCAAAGYFPTAGSRRAYYYCGQGTQVTVSS | high polyreactivity
25 | QVQLVESGGGLVQAGGSLRLSCAASGFIFWVYAMGWYRQAPGKESELVAAITSGGRTYYADSEKGRFTISRDNAKNTVYLQMNSLKPEDTAVYYCAARWHYGYYSYYYWGQGTQVTVSS | high polyreactivity
26 | QVQLVESVGGLVQAGGSLRLSCAASGRTLPWYAMGWYRQAPGKERELVAVIRWIGGRTYYADSVKGRFTISRDNAKNTVYLQMNSLKPEDTAVYYCAARPHYYYGWYYYWGQGTQVTVSS | high polyreactivity
27 | QVQLVESGGGLVQAGGSLRLSCAASGFIFSPNAMGWYRQAPGKEREFVAAIRYSGTSTSYADSVKGRFTISRDNAKNTVYLQMNSLKPEDTAVYYCNAQWRFSRGYTYNYWGQGTQVTVSS | high polyreactivity
28 | QVQIVESGGGLVQAGGSLRLSCAASGRTFRYYTMGWYIQAPGKERELVAVISRSGGSTYYADSVKGRFTISRDNAKNTVYLQMNSLKPEDTAVYYCNAGYWRFIDSYDYWGPGTQVTVSS | high polyreactivity
29 | QVQLVESGGGLVQAGGSLRLSCAASGSIFGTYAMGWYRQAPGKERELVAAISWSDGSTYYADSVKGRFTISRDNAKNTVYLQMNSLKPEDTAVYYCAKVYRSIGPNVSRYGLSYYYWGQGSQVTVSS | low polyreactivity
30 | QVQLVESGGGLVQAGGSLRLSCAASGFIFVPYAMGWYRQAPGQERELVAAISSSGGSTNYTDSVKGRFTISRDNAKNSVYLQMNRLKPEDTAVYYCAAATWYVNPTHFNRYSEFYYWGQGTQVTVSS | low polyreactivity
31 | QVQLVESGGGLVQAGGSLRLSCAASGRTFYYNTMGRNIPAPGKERELVATISRIGGSTYYADSVKGRFTISRDNAKNTVYLQMNSLKPEDTAVYYCAKGRSLNGRPPVVYWQLFYYWGQGTEVTVSS | high polyreactivity
32 | QVQLVESGGGLVQAGGSLRLSCAASGRIFYFYAMGWYRQAPGKETELVAAISTSGGSTYYADSVKGRFTISRDNEKNTVYLQMNSLKPEYTAVYYCAARFRYYGSEYDYWGQGTQVTVSS | low polyreactivity
33 | QVQLVESGGGLVQAGGSLRLSCAASGRIFPYYAMGWYRQAPGKERELVAAINWRGTRTYADSVKGRFTLSRDNAKNTVYLQMNSLKPEDTEVYYCAARTLYFSKYDYWGQGTQVTVSS | high polyreactivity
34 | QVQLVDSGGDLVKAGGSLRLSCDASGSTFRDYDMGWYRQAPGKERELVDAITGSGSSTYYADSVKGRFTISRDNAKNTVYLQMNSLKPEDTAVYYCAATWVVSYRVYRSYYWGQGTQVTVSS | low polyreactivity
35 | QVQLVESGGGLVQAGVRLRLSCPASGTTFYYNAMGRYRQAPGKERELVAAITSGGRTKYADSVKGRFTISRDNAKNTVYLQKNRLKPEDTAVYYCNTYNRRSGTLPKAYDYWGQGTQVTVSS | high polyreactivity
36 | QVQLVESGGGLVQAGGSLRLSCAASGIILSYYVMGGYRQAPGNATELVAAISLRGGTTYYADSVKGRFTISRDNANTTVYIQMNSLKPEDTAVYYCAAQRPGFGYEYDYWGQGTQVTVSS | high polyreactivity
37 | QVQLQESGGGLVQAGGSLRLSCAASGTISPLPAMGWYRQAPGKEREFVAGIDTGAITNYADSVKGRFTISRDNAKNTVYLQMNSLKPVDTAVYYCAVFPAAYDYYERYYTYWGQGTQVTVSS | low polyreactivity
38 | QVQLVESGGGLVQAGGSLRLSCAASGITFGGYAMGWYRQAPGKERELVASIRSGSSTNYADSVKGRFTISRDNAKNTVYLQMNSLKPEDTAVYYCAARNFRNRYGYWGQGTQVTVSS | high polyreactivity
39 | QVQLVESGGGLVQAGGSLRLSCAASGNTFFRYAMGWYRQAPGKERELVAAISKSGGSTYYADSVKGRFTISRDNAKNTVYLQMNSLKPEDTAVYYCAAYSPYGRYDYWGQGTQVTVSS | high polyreactivity
40 | QVQLVESGGGLVQAGGSLRLSCAASGRTFIGNAMGWYRQAPGKERELVAGISYRGGSTYYADSVKGRFTISRDNAKNTVYLQMNSLKPEDTAVYYCAAPGRGGYYYWGQGTQVTVSS | high polyreactivity
41 | QVQLVESWGGLVQAGGSLRLICAASGSTFRDYFLGWYRRAPGKERELVATISGSGGSTYYADSVKGRFTISRDNAKNTVYLQMNSLKPEDTAFYYCAAVSVSSWYDYWGQGTQVTVSS | low polyreactivity
42 | QVQLVESGGGLVQAGGSLRLSCAASGITFNYYVMGWYRQAPGKERELVAAIRRGGSTNYADSVKGRFTISRDNAKNPVYLQMNSLKPEDTAVYYCAARTYRGLAYDYWGQGTQVTVSS | high polyreactivity
43 | QVHLGESGGGLVQAGGSLRLSCAASGSTFDRNVIGGYRQAPGKERELVAAISRVSSTNYADSVKGRFTISRDNAKNTVYLQMNSLKPEDTAVYYCAADRAGSIMNYWGQGTQVTVSS | low polyreactivity
